This data set in a line: soluble on expression in E. coli; label from the status in PepcDB or PDB records.
On to “MGSDKIHHHHHHMEDFWRIRATDTAWKGVLHLASPRRYSRGEVIIRAGEMVDSLFYLESGEVRMIRTSMEGSEKILMYIEEGTLFGETPFFTGQPILSTFVCSRPAVIWRFSRHSVYADLLPNHPEIVSSLLHTFAAKVSTLSNQSASLGLQNVAERLCTFLYVTSGESISGAHGAELKLSMKMRDIANLLGVHRTTLYKAIRDLEKEGVLENFTRDSVRIADVTRFLEMVHK”, for which the “soluble on expression in E. coli” value is given as “not soluble”. As for “PLPATANSHEYLLDNGLKLVVKEDHRSPVVIQQVWYKAGSMDEVNGTTGVAHALEHMMFKGTDSVLAGEFSRKIAAIGGKENAFTSRDYTAYYQQLHQRHLPMAMELESDRMHNLQLTEEAFAKEIQVVMEERRLRTDDQAHSLLYEKMMATAFQTHPYRRPVIGWMNDLENMQVNDARDWYQRWYAPNNAVLVVVGDVDPENVFVLAKKYYGRF”, the entry is “not soluble”; as for “MGSDKIHHHHHHMEYEIVIGLEVHAELATKTKMYCGCTAEFGGQPNTHVCPVCMGLPGALPHINKRAVDYGIKAGLALNCSITHIGRMDRKHIFYPDNSRNYQITQDELPLCTNGYIEIELEDGSKKKIGVERIHIEEDAGKLLHTNAGTLVDFNRCGVPLAEIVSKPDMRSPREAVTYLEELKSILSCVGVSDCKMEEGSLRCDANISVMKKGAKEFGVRTEIKNMNSFKAVEKALNYEYERHIKAIESGEKLTQETRRWDDAKNETAPMRSKEEANDYRYFPEGDLVTLNIDDEWIESIRKTIPELPYQKRERFIKEFGIPKYDASVLTLTMSMADFFEKTAKISGDAKSASNWLMGDISKIMKENYVWIEDLKFTPEQLSELIKLINEGTVSNAIGKKVIIKMFETGKSPKNIIEEEGLIQNSNEDEILNIVKEVLSENEKSIEDYKNGKNRVVGFLIGLVMKKTKGKANPKIVNKLMIDELNKQ”, “not soluble”; as for “MIKKCLFPAAGYGTRFLPITKTIPKEMLPIVDKPLIQYAVEEAMEAGCEVMAIVTGRNKRSLEDYFDTSYEIEHQIQGTNKENALKSIRNIIEKCCFSYVRQKQMKGLGHAILTGEALIGNEPFAVILADDLCISHDHPSVLKQMTSLYQKYQCSIVAIEEVALEEVSKYGVIRGEWLEEGVYEIKDMVEKPNQEDAPSNLAVIGRYILTPDIFEILSETKPGKNNEIQITDALRTQAKRKRIIAYQFKGKRYDCGSVEGYIEASNAYYKKRLLEHHHHHH”, “soluble”. Consider “MRDALHVTADDADATDDAIPDSRETGVTGVVLAGGLSTRLGHDKAVIRLHGEQGPDLLVRTAALLEPLVDEVWISCRPGRCVTGPYLRIYDEVQGLGPFGGVMTALRAAQGPVLVLSCDLPFMERTLLERLLERRGARHPEALMTTFRQEETGFIESLVAVYEYACLPFFEDALTDGVHKLSRVIPAERREDIVYTQNEALPFFNVNYPADLEMARRIIGALLEHHHHHH”, for which the “soluble on expression in E. coli” value was “not soluble”. “MSLTYYFSGTIDRVIFENTSNFFKIILLEIDDTDSDFDDFEIIVTGTIADVIEGENYTFWGELTQHPKYGQQLKVERYQRAKPSSAGLIKYFSSQHFKGIGKKTAEKIIHLYGDDPIDNILEDPDKLESISGLSKANRENLVSKLRLNYGAEQILAKLAEYGLNNKTAVQIFERYKEESLTVITENPYQLVEDIQGIGFKMADKLAEQVGINSDAPQRFRAALVHTLLETSIDKGDTYIEAKELLEKSLFILEEVRQVELDPSQIAQELTQLISEDKVQNIGTKIFDNTLFYAESGIHKHLTRILDRPLEKEISSQDIQTEIKHIQAEFNINYDKAQKNAIQKAIQSKVFLLTGGPGTGKTTVINGIIKAYANLHQIDLQKSDRPIILAAPTGRAARRMNELTGLPSATIHRHLGLNGDSEYQALDDFLDCDLIIIDEFSMVDTWLANQLFSAIASNTQVIIVGDSDQLPSVGPGQILADLLKINRLPQVSLTKIFRQSEDSTIVTLANQIRQGRLPTDFTAKKADRSYFEAQSTHIPQMIQKIVSSALKSGIDAQEIQILAPMYRGQAGITHLNKLMQDLLNPLNNQLEFQFNDLHFRKGDKVLHLINDAQINVFNGDIGYITDLIPAKYTESKQDEMILDFDGTEINYPRNEWLKITLAYAMSIHKSQGSEFKVVILPVTRQSGRLLQRNLIYTAITRSKSKLVMLGEIAAFDNAIKNEGTKRKTYLIERFKKDECSGHHNTEKNKQGVKESAAILKEDFILTERNILTIDPMIGLSQADIDLFFKKEGHHHHHH”: the “soluble on expression in E. coli” value was “soluble”.

Regarding “MNVTVAPQDETLSARAGRVATIAAKHADDVDVTGRFPQEAVDALRRERLLGIQVPSSLGGEGASIQEIADICARLGQACSATAMIFAMHHIKLSSLVEHGVDSTWHPGFMRRVAGEQLLLGSATTEGGIGGNLRNSICAIEVEGDSCRLEKDATVISYGSNADAILITSRAHKDAAPADQVMTVFLKNQYTLEKTHVWDTLGMRGTCSDGFLFRGEAPAAQIFPKPFAEIAAQSMLASSHLLWSAVWYGIASDAVLRAQSFVRAAARKSPGTAPPGAIRLAEVSTKLQVVKSNIIAGIKAYEDTKSDPEKLMSMAFAVAMNNVKICSSETILEIIDHAMLVCGIMGYKNGTPYSLGRHLRDAHSARLMISNDRILGNSANLLLVHRQDTSLLG”, the “soluble on expression in E. coli” value is “soluble”. The same measure for “MRKQALHPRTAVINKAQKNQSKRARSDALLWLAANFPEAFDNSLRIRPLKIGIMSDILQHAEKAEQVGISKSKLREAVVLFTRRLDYLACLKAREVRIDLHGNPVAEVTEEEAEHASMKIKKRVEKSVKNARKQVNAKAANHSHVNSQPSAVSSVKPMNSFDSHPEPLLPIYPLRSSTYASQNVAMQSAKSPSVVVKHKAPKQYDPDAVARLKEKLGLSRKAEEKKETTE”: “not soluble”; for “MAHHHHHHMAFNQRFDRGAQPSYAAVQLPPGWQMAYSVEGEVYYIDHNTRTTHWKIPQEVLNEMYHQGQTYRPSRSRRGIDRSKMKTKMCMNIQNGGKCTWGNACAFAHSSEELAAVPHNGGGQRMRMDPGAHQGNDNGLDNNHLQQ”: “soluble”. As to “MGKALIIGCGGVASVAVHKCVQNSEVFEEICIASRTKSKCDALKAKLDGGKTKITTAQVDANNVDELIALIEEVKPDVVMNLALPYQDLTIMDACLATKTNYLDTANYEPEDTAKFEYKWQWDYRERFEKAGITALLGSGFDPGVTGVFSAYALKHHFDEIEYIDILDCNAGDHGYPFATNFNPEINIREVSANGRYWENGEWVETNPMEIKRVYNFPEVGEKDMYLLYHEELESLAVNIPGIKRIRFFMTFSESYLTHLKCLENVGMTSIEPIEFEGKEIIPLQFLKAVLPDPASLGPRTKGKTNIGCIFKGKKDGKDKTYYLYNVCDHEECYKEVGSQAVSYTTGVPAMIGAMMLMTGKWNKPGVYNIEEFDPDPFMEALNKWGLPWKEDHNPQLVDSDPIKETELVR”, the “soluble on expression in E. coli” value is reported as “not soluble”.

Consider “HKFIRTAIDMDKNRAFSSRLRQSIKDYFDMPWYLTFADAERLSDLRDEALVLRDDEVTGQVPMEVEYEEFQQVNDELSERIGDMLKAHKEQGTPIDLSVVLRDYLAQHPYTHHFDLARIIVDQAVRLGYSESDYQAIQPDWKAINEFGAKVQANVIDRY”, for which the “soluble on expression in E. coli” value is “soluble”. As for “MVWSSETFGMTPEEQIEWMALDDQEKKKLERKRARNRQAATKCRQKKMDRIKELEEQVLHEKHRGQRLDAELLELNRALEHFRRTVEHHSGNGCPNNSIRV”, the entry is “not soluble”.

For “MMLPKEIMMPNDNPYALHRVKVLKVYSLTETEKLFLFRFEDPELAEKWTFKPGQFVQLTIPGVGEVPISICSSPMRKGFFELCIRKAGRVTTVVHRLKPGDTVLVRGPYGNGFPVDEWEGMDLLLIAAGLGTAPLRSVFLYAMDNRWKYGNITFINTARYGKDLLFYKELEAMKDLAEAENVKIIQSVTRDPNWPGLKGRPQQFIVEANTNPKNTAVAICGPPRMYKSVFEALINYGYRPENIFVTLERRMKCGIGKCGHCNVGTSTSWKYICKDGPVFTYFDIVSTPGLLD”, the “soluble on expression in E. coli” value is “not soluble”. As for “MVKLHLKTTCREVPIEEIISTGQIQFFKHLSESTSEFKDQKNVERFRLIYNGRALNEESLKKITDADSIRVVLLPPLKTNNHIEEEQKNRISIALKECTAPYTRPNDRRLHGFNHDFALPDHMTTLLEKHPQLVHDNQFLSVLSDWSLFRAYCVQNDFKDDPIRGQFMYTNPDFLKVVENILSTVGSRYGYENLDYANVERNRPGMLAAQRPIGGAQPVTHALLQNALQAALANIAVPPANRVPAPANVQPAQQQQEEPMQQGYEQQAATLREFGFENDELIQLALEQANGDVQAAMEFLIDLQN”, the entry is “not soluble”. The same measure for “MGQEYYFCRCGRSKKQPYCDGSHSGTGMKPMSFTAEKDEDAYLCQCKHTANAPFCDGTLEHHHHHH”: “not soluble”; for “MAKATYACVECGYRTPKPLGRCPSCGSWESFQEVAPAPASRRAKPSPLPLLALSQVDEAEERRFSSGLSEVDRVLGGGFVTGEVVLLGGEPGVGKSTLLLEMAKRMPQRVYYVAGEESPAQIKLRAQRLGVKDLLLVRETRLEPLLALLEEDPPEVLFVDSVQTLEAGGSPGSLVAVREATSALVRFAKERGVAVVLVGHVTKEGVVAGPKSVEHAVDATLYLETAGPYRVLRSAKNRFGPVGEIGVFRMEEAGLLEVENPSEAFLKERPLGVPGSAVALALAGERALALEVQALAAKTPFPAPRRVVQGLDGRRVDVVLAVLERRLGLPLANLDVYVNLAGGLKVQDPGLDLAVALAVYSAVVGRPLPVDLALVGEVGLAGEVRRVAVLERRLREGERAGFGRFLHPGNLKRLQEAVEAYLA”: “soluble”; for “MSRSSVTGKEFVIRYVFNDVSNMNENDMRISTVEEYFNVPWIFQIQRNNGNLGIYLRCRKLKGQEMWSMFTELELKLISVYSDTRDQKCKTDMCFGHDSGKFYSSYGWSEFISWNELETSFMDAGSITVEARVIINKSIGFYTPKLMNFDEKKKEYSDIVVLVDGQRFYLLKKFLAFHSTFFESLFLGGFYEAKLTEVPLYDIDVDDFQKFLEVLYGFPVINDNTVEGILLLADMYQTPLVSELCEDFLIQTTGKTYKKKLQMAIKFNLENLKQFCISMIKSPFDLRSMIPSDISSIDHSTLAALFTKSLTLMK”: “not soluble”. The same measure for “MSKIIGIDLGTTNSCVAVLEGGEVKVIPNPEGNRTTPSVVAFKNGERLVGEVAKRQAITNPNTIISIKRHMGTDYKVEIEGKQYTPQEISAIILQYLKSYAEDYLGEPVTRAVITVPAYFNDAQRQATKDAGRIAGLEVERIINEPTAAALAYGLDKEEDQTILVYDLGGGTFDVSILELGDGVFEVKATAGDNHLGGDDFDQVIIDYLVNQFKQEHGIDLSKDKMALQRLKDAAEKAKKELSGVTQTQISLPFISANENGPLHLEMTLTRAKFEELSAHLVERTMGPVRQALQDAGLTPADIDKVILVGGSTRIPAVQEAIKRELGKEPHKGVNPDEVVAIGAAIQGGVIAGEVKDVVLLDVTPLSLGIETMGGVFTKLIERNTTIPTSKSQVFTTAADNQTTVDIHVLQGERPMAADNKSLGRFQLTGIPPAPRGVPQIEVTFDIDANGIVHVRAKDLGTNKEQSITIKSSSGLSEEEIQRMIKEAEENAEADRKRKEAAELRNEAD”: “soluble”; for “MSLETETMSQDLMQRGKAIKLAVFDVDGVLTDGRLYFMEDGSEIKTFNTLDGQGIKMLIASGVTTAIISGRKTAIVERRAKSLGIEHLFQGREDKLVVLDKLLAELQLGYEQVAYLGDDLPDLPVIRRVGLGMAVANAASFVREHAHGITRARGGEGAAREFCELILSAQGNLEAAHSVYLEGHHHHHH”: “soluble”; for “VGVGYFDTIEIKTILSLLQIIDNPMQDIPLISVLKSPIFGFTPEDLIDIRVQSKDKIFYEVLKSTAEYDGFTDSQNENESEFIPSEECINKSKDFLIKLKEFKEKSMYMSTDEFIWYLYTRTGYYAYVGALPGGSQRQANLKVLFERAKQFEETSLKGIFNFVNFIEKLKKSSSDMGSAKT”: “soluble”.

Values taken from the DeepSol protein solubility set.
